The target of the assay is T1, LAG-3 protein as used in the Biacore analysis (partner not given) (UniProt P18627 23-434, limits assumed).
T1 sequence (looked up): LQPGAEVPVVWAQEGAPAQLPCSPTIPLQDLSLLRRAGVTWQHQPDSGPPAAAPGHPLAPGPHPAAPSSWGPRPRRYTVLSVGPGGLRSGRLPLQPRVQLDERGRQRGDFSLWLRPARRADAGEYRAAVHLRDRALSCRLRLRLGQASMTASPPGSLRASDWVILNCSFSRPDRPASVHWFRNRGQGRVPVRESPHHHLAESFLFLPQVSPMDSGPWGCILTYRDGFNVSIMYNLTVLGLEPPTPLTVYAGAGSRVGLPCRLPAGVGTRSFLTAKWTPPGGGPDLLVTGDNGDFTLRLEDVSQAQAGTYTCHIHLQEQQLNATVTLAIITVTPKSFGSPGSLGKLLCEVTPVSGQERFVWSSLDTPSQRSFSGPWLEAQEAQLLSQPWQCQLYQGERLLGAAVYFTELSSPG
Description: Biacore (SPR).

The values below come from US20110070238A1 (published 2011).

The term Kd denotes the equilibrium constant for the complex coming apart. A low value points to tighter binding. Broadly, the koff is the rate constant with which the complex falls apart. A high value points to a short-lived complex. One may read the kon as the rate constant with which the complex forms. Lower therefore signals slower complex formation.

B1: A9H12 (580.1E MM H12), murine IgG2a anti-human LAG-3 monoclonal antibody (antibody, V domains shown)
VH: QVQLKESGPGLVAPSQSLSITCTVSGFSLTAYGVNWVRQPPGKGLEWLGMIWDDGSTDYNSALKSRLSISKDNSKSQVFLKMNSLQTDDTARYYCAREGDVAFDYWGQGTTLTVSS
VL: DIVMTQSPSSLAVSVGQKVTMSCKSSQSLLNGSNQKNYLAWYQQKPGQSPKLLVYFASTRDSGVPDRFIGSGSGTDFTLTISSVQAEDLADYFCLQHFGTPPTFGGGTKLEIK
notes: Murine IgG2a from hybridoma; also called A9H12 LAG-3 mAb; hybridoma CNCM I-3755
On to B1, for which the Kd stood at 0.829 nM, the koff came out at 0.00143 s⁻¹ and the association rate constant (kon) was 1.72e+06 M⁻¹ s⁻¹.

B2: IMP731 (chimeric A9H12 with human IgG1 Fc region) (antibody, V domains shown)
VH: B1 VH
VL: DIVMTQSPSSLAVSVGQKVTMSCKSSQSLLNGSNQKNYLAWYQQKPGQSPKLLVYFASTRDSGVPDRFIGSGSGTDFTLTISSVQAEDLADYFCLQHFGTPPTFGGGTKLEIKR
notes: also called ImmuTune IMP731; IMP371 [sic]
For B2, the dissociation constant (Kd) was determined as 0.551 nM, the koff came to 0.00112 s⁻¹ and the kon turned out to be 2.03e+06 M⁻¹ s⁻¹.
